Data on two molecules can be found in patent publication US20220233607A1 (UNIVERSIT DE TOURS, published 2022).

The test deals with T1, DEC205 on MutuDC 1950 cells (murine dendritic cell line, DEC205+) (murine, UniProt Q60767 28-1723).
T1 construct: whole, on cells; also called CD205; dendritic cells
Nature of the test: flow cytometry, MutuDC 1950 cells with parasites at MOI 2 on ice, anti-gp23 mAb.

B1: scFv anti-DEC205 fused to SAG1 (DC2 SAG1) protein, membrane anchored SAG1 ScFv DEC 205 including a HA tag, on the surface of T. gondii RH-DC2-SAG1 tachyzoites (scFv)
scFv: YPYDVPDYAQVQLQESGGGLVQPGGSLRLSCAASGFTFNDFYMNWIRQPPGQAPEWLGVIRNKGNGYTTEVNTSVKGRFTISRDNTQNILYLQMNSLRAEDTAIYYCARGGPYYYSGDDAPYWGQGVMVTVSSGGGGSGGGGSGGGGSDIQMTQSPSSLSASVGDRVTITCRASQNIKGWLAWYQQKSGNAPQLLIYKASSLQSGVPSRFSGSGSGTDYIFTISNLQPEDIATYYCQHYQSFPWTFGGGTKLELKGGGASPLVANQVVTCPDKKSTAAVILTPTENHFTLKCPKTALTEPPTLAYSPNRQICPAGTTSSCTSKAVTLSSLIPEAEDSWWTGDSASLDTAGIKLTVPIEKFPVTTQTFVVGCIKGDDAQSCMVTVTVQARASSVVNNVARCSYGADSTLGPVKLSAEGPTTMTLVCGKDGVKVPQDNNQYCSGTTLTGCNEKSFKDILPKLTENPWQGNASSDKGATLTIKKEAFPAESKSVIIGCTGGSPEKHHCTVKLEFA
notes: also called RH-DEC205
Turning to B1, the “multiplication factor of the percentage of T. gondii binding to mutuDC cells (against RH strain)” value is at least 2.5 fold.

B2: scFv anti-DEC205 (DC2) protein, membrane anchored ScFv DEC 205 including a HA tag, on the surface of T. gondii RH-DC2 tachyzoites (scFv)
scFv: YPYDVPDYAQVQLQESGGGLVQPGGSLRLSCAASGFTFNDFYMNWIRQPPGQAPEWLGVIRNKGNGYTTEVNTSVKGRFTISRDNTQNILYLQMNSLRAEDTAIYYCARGGPYYYSGDDAPYWGQGVMVTVSSGGGGSGGGGSGGGGSDIQMTQSPSSLSASVGDRVTITCRASQNIKGWLAWYQQKSGNAPQLLIYKASSLQSGVPSRFSGSGSGTDYIFTISNLQPEDIATYYCQHYQSFPWTFGGGTKLELKGGGAS
notes: also called SS SAG1-HA-ScFv-linker-GPI; RH-DEC205
In the case of B2, the “multiplication factor of the percentage of T. gondii binding to mutuDC cells (against RH strain)” value is at least 2.5 fold.
